Test results: patent US20190270809A1 (FOURTH MILITARY MEDICAL UNIVERSITY, published 2019)
Numbering of substitutions follows the chain as printed. Blank lines part the entries; values can stand above or below the binder they belong to.

Columns and labels:
[1] = molecular target: T1, human BASIGIN recombinant protein (human, UniProt P35613-2 22-205, limits assumed); assay: SPR (ProteOn XPR36), human BASIGIN amine-coupled on chip, antibody as analyte
T1 construct: also called hBASIGIN
T1 sequence (looked up): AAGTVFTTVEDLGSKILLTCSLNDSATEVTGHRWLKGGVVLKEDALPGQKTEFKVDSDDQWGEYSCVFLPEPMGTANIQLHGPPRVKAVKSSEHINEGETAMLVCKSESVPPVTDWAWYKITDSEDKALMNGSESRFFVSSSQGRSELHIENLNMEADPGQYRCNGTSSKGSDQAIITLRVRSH
Method: The affinity of the antibody was measured with ProteOn XPR36 (Bio-Rad). The GLC chip (Bio-Rad, 1765011) was activated with 0.04 M EDC+0.01 M sulfo-NHS (Bio-Rad). The human BASIGIN was diluted to […] with 10 mM NaAc (pH 4.5) and then injected onto the chip at the rate of 30 μl/min to couple the antigen with the activated chip via amino groups. Finally, the chip were inactivated with 1 M ethanolamine-HCl (Bio-Rad), and when the chip was rotated for 90 degrees, it was washed with a buffer (PBS/0.005% Tween 20) until the baseline was stable. Five cell culture supernatants containing scFv antibody and one negative control were injected on six horizontal channels, respectively, at feeding rate of 30 μl/min. The time for binding was set as 60 s and the time for dissociation was set as 900 s. The data were analyzed using the Kinetic-Langmuir model.
The binding affinity of the three humanized antibodies, the mouse antibody 6H8 and the chimeric antibody c6H8 were also determined by SPR (for detailed steps, please refer to the description in example 6), data were shown in Table 2.

[2] = molecular target: T1, human BASIGIN recombinant protein; assay: ELISA, coated human BASIGIN recombinant protein, HRP-labelled goat anti-human light chain constant region secondary antibody, A450
Method: 200 ng of human BASIGIN recombinant protein was coated in an ELISA plate and allowed to stand overnight at 4° C. The coated plate was blocked with 0.1% BSA at room temperature for 1 hour. Three antibodies obtained in example 8 along with the parental mouse monoclonal 6H8 and chimeric antibody c6H8 were each prepared into 5 solutions with gradient concentrations of 10, 100, 1,000, 10,000 and 100,000 ng/ml. 100 μl of each solution was added into individual wells and the plate was allowed to stand at room temperature for 1 hour. 100 μl of 1:4,000 diluted horseradish peroxidase-labeled goat anti-human light chain constant region as secondary antibody (Millipore) was added and allowed to stand at room temperature for 1 hour. The plates were then washed with 200 μl of 1×PBS buffer for 3 times, TMB substrate solution (50 μl/well) was added to each well to react for 10 min, and the stopping solution (2 M HCl, 50 μl/well) was added to terminate the reaction. The absorbance at 450 nm was read in an ELISA plate reader.

Kd [1]: 0.0583 nM
koff [1]: 3.6e-05 s⁻¹
kon [1]: 618000 M⁻¹ s⁻¹
B2: humanized antibody HP6H8-2 (antibody, V domains shown)
VH: EVQLVESGGGLVQPGGSLKLSCAASGFTFSNFWMNWVRQAPGKGLEWVAEIRLKSNNYATHYAESVKGRFTISRDDSKNTLYLQMNSLRTEDTAVYYCTSYDYEYWGQGTLVTVSA
VL: DIQMTQSPASLSASVGDRVTISCKASENVGTYVSWYQQKPGQTPKLLIYGASNRYTGVPSRFSGSGSGTDFTLTISSLQPDDFATYYCGQSYSYPFTFGSGTKLEIK
notes: Derived from scFv clone 11245; also called WBP229-204; pCI-WBP229-204L/H

Kd [1]: 1.17 nM
koff [1]: 6.64e-05 s⁻¹
kon [1]: 56600 M⁻¹ s⁻¹
EC50 (read off the curve) [2]: ~500 ng/mL
B4: mouse monoclonal antibody HAb18GC2 (6H8) (antibody, V domains shown)
VH: EVKLEESGGGLVQPGGSMKLSCVASGFTFSNFWMNWVRQSPEKGLEWVAEIRLKSNNYATHYAESVKGRFTISRDDSKSSVYLQMNNLRTEDTGIYYCTSYDYEYWGQGTLVTVSA
VL: NIVMTQSPKSMSMSVGERVTLSCKASENVGTYVSWYQQKPEQSPKLLIYGASNRYTGVPDRFTGSGSATDFTLTISSVQAEDLADYHCGQSYSYPFTFGSGTKLEIK
notes: Mouse monoclonal from hybridoma CCTCC-C200636; also called mouse 6H8; Mouse monoclonal 6H8

The next lines start with the binder.

B1: humanized antibody HP6H8-3 (antibody, V domains shown)
VH: B2 VH with R89K
VL: B2 VL with A9S, I21L, S22T, T43A, S63T
notes: Derived from scFv clone 11242; also called WBP229-203; pCI-WBP229-203L/H
Kd [1]: 0.102 nM
koff [1]: 5.44e-05 s⁻¹
kon [1]: 531000 M⁻¹ s⁻¹

B3: humanized antibody HP6H8-1 (antibody, V domains shown)
VH: B2 VH with K19R, A49S, R89K
VL: B2 VL with A9S, S10T, I21L, Q42K, T43A, S63T, D81E
notes: Derived from scFv clone 11305; also called WBP229-205; pCI-WBP229-205L/H
Kd [1]: 0.0905 nM
koff [1]: 4.96e-05 s⁻¹
kon [1]: 548000 M⁻¹ s⁻¹

B5: chimeric antibody c6H8 (antibody, V domains shown)
VH: B4 VH
VL: B4 VL
notes: Mouse 6H8 variable regions fused to a human constant region of IgG1 isotype; also called chimeric 6H8
Kd [1]: 0.452 nM
koff [1]: 5.81e-05 s⁻¹
kon [1]: 128000 M⁻¹ s⁻¹
